We go through two substances from PMC3969221.

The target in assay [1] is Manduca sexta cadherin protein fragment (CR7–CR12) (Manduca sexta). Put plainly: ELISA; 1 μg of cadherin fragment coated per well; toxin or protoxin dilutions in PBS, 1 h at 37°C; detected with polyclonal anti-Cry1Ab antibody; Scatchard analysis; apparent Kd. In general terms: In an ELISA, binding on a coated surface is turned into a signal by an enzyme label.
The target in assay [2] is trypsin-activated Cry1AbMod toxin (Bacillus thuringiensis) (UniProt P0A370).

Turning to “Cry1Ab protoxin (from UniProt P0A370 1-1155) (natural protein)”, the Kd in assay [1] amounted to 6.8 nM. With “trypsin-activated Cry1AbMod toxin (from UniProt P0A370 1-1155) (domain or fragment)”, the LC50 (50% lethal concentration) against M. sexta neonatal larvae, mortality after 7 days in assay [2] was found to be 15 ng/cm^2.
